Reference: article PMC10427625, “Structural basis for negative regulation of the Escherichia coli maltose system” (Nature Communications, 2023)
Changes are numbered by the printed parent chain.

Tests used:
Experiment in all cases: pull-down; GST-tagged MalY incubated with an excess of WT or mutant MalT on ice for 30 min, Glutathione Sepharose 4B, buffer TKCl with 0.1 mM ADP and 10 μM PLP; elution with 20 mM glutathione, SDS-PAGE, Coomassie
Conditions in all cases: both partners purified
[1] = molecular target: T1, MalT-N169A, N-terminally His-tagged (Escherichia coli, UniProt P06993 1-901, N169A)
T1 construct: MalT of Escherichia coli, variant of plasmid pOM206 made by site-directed mutagenesis; source: E. coli BL21 (DE3) ΔmalT220, purified (Ni Sepharose, gel filtration)
T1 sequence (looked up): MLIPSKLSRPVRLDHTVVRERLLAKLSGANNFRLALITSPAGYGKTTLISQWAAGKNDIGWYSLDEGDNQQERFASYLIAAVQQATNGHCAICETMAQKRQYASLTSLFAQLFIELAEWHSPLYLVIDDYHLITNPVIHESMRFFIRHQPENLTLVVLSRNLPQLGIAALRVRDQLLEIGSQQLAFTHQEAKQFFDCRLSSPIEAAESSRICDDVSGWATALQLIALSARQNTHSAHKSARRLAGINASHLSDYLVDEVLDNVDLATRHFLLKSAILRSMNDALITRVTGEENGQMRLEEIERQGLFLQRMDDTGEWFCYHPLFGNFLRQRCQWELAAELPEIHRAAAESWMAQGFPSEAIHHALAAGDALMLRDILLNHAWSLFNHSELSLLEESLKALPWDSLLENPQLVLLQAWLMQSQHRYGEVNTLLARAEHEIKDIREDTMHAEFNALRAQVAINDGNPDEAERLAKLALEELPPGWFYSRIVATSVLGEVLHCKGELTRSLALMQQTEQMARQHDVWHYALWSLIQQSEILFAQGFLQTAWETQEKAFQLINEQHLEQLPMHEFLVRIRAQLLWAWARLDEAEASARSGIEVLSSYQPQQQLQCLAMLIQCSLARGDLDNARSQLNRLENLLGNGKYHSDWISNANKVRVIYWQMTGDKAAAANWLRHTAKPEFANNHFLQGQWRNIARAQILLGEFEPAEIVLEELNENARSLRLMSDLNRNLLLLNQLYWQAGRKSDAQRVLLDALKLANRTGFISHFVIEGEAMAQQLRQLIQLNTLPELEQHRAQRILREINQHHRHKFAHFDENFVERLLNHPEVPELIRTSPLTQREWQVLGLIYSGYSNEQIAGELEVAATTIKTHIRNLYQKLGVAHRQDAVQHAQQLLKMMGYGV

[2] = molecular target: T2, MalT-E140A, N-terminally His-tagged (Escherichia coli, UniProt P06993 1-901, E140A)
T2 construct: MalT of Escherichia coli, variant of plasmid pOM206 made by site-directed mutagenesis; source: E. coli BL21 (DE3) ΔmalT220, purified (Ni Sepharose, gel filtration)
T2 sequence (looked up): T1 sequence (looked up) with E140A, A169N

[3] = molecular target: T3, MalT (wild type), N-terminally His-tagged (Escherichia coli, UniProt P06993 1-901)
T3 construct: Purified with 0.1 mM ADP or 0.4 mM ATP; the elution at 103 kDa fits the whole protein; In PDB 8BOB only residues 1-423 are well defined; also called WT MalT; MalT WT; source: E. coli BL21 (DE3) ΔmalT220, purified (Ni Sepharose, gel filtration)
T3 sequence (looked up): T1 sequence (looked up) with A169N

Measured: binding result

B1: N-terminally GST-tagged MalY (enzyme, Escherichia coli, UniProt P23256 1-390, looked up)
chain: MFDFSKVVDRHGTWCTQWDYVADRFGTADLLPFTISDMDFATAPCIIEALNQRLMHGVFGYSRWKNDEFLAAIAHWFSTQHYTAIDSQTVVYGPSVIYMVSELIRQWSETGEGVVIHTPAYDAFYKAIEGNQRTVMPVALEKQADGWFCDMGKLEAVLAKPECKIMLLCSPQNPTGKVWTCDELEIMADLCERHGVRVISDEIHMDMVWGEQPHIPWSNVARGDWALLTSGSKSFNIPALTGAYGIIENSSSRDAYLSALKGRDGLSSPSVLALTAHIAAYQQGAPWLDALRIYLKDNLTYIADKMNAAFPELNWQIPQSTYLAWLDLRPLNIDDNALQKALIEQEKVAIMPGYTYGEEGRGFVRLNAGCPRSKLEKGVAGLINAIRAVR
notes: MalY of E. coli; full-length malY amplified from E. coli genomic DNA, cloned in pGEX-6P-1; Bait of the pull-down; 10 μM PLP present; not shown: GST, N-terminal, kept
binds: [1] | [2] | [3]
